The record followed here is patent US9035028B2, “Temperature sensitive conjugate compositions” (Emory University, priority 2010, dated 2015).

In test [1] the target is T1, GPIIb/IIIa on human platelets (Homo sapiens, UniProt P05106+P08514).
T1 construct: endogenous in cells
The experiment in a line: Flow cytometry: binding to human platelets. As to conditions: for binding to human activated platelets: 20 μM ADP. The method, then: (§1) Human blood was collected by venipuncture with a 21-gauge butterfly needle from healthy volunteers and anticoagulated with citric acid. Platelet-rich plasma (PRP) was obtained by centrifugation (GS-6R centrifuge, Beckman Coulter) at 100×g at room temperature for 10 min.
(§2) Human PRP was diluted 1/50 in modified Tyrode's buffer containing 2 mM MgCl2 and 2 mM CaCl2. Platelets were either activated by addition of 20 μM ADP, or non activated, followed by the incubation with 15 and 50 μg/mL EMP-scFv fusion protein or EMP at 22° C., 32° C. and at 37° C. for 15 min. Mouse platelets were either pre-activated for 10 min by addition of 0.1 U/mL thrombin (Enzyme Research Laboratories), or non activated, before the incubation with 15 and 50 μg/mL of EMP-scFv fusion protein at 22° C., 32° C. or 37° C. for 15 min. In both, human and mouse samples, EMP-scFv was detected via 15 min in-dark incubation with secondary antibody (Penta-His Alexa Fluor 488, Qiagen) directed against the His(6)-tag of the single-chain antibody.
In re-warming experiments, activated and non-activated diluted human PRP was incubated with 15 and 50 μg/mL of EMP-scFv for 15 minutes at 22° C., followed by a 15-min in dark incubation with secondary Penta-His Alexa Fluor 488 antibody. Half of the reaction was then fixed with 1× Cell FIX, while the other half was incubated at 37° C. for either 15 or 30 minutes, before being fixed and measured in FACS.

The target in test [2] is T1, GPIIb/IIIa on human platelets. The experiment in a line: Flow cytometry: inhibition of fibrinogen binding to human platelets. The test is classed as cell-based. How it is done:
as §1, §2
Fibrinogen binding to human activated platelets in the presence of EMP-scFv was determined with a polyclonal rabbit anti-human fibrinogen FITC-labelled antibody (DakoCytomation), while the effects of EMP-scFv on fibrinogen binding to mouse platelets were determined using FITC-conjugated rabbit anti-fibrinogen polyclonal antibody (Cemfret). Fluorescence detection was performed as described above. Samples were measured in a FACSCalibur® flow cytometer (Becton Dickinson), after fixation with 1× CellFIX® (Becton Dickinson).
(Flow cytometry measures light scatter and fluorescence of single cells or particles in a stream.)

Test [3] deals with human platelets. The test is described as follows: Flow cytometry: platelet activation (PAC-1 binding, P-selectin expression). The settings on record: human diluted PRP, 22° C. The test is classed as cell-based. The method, then: Effects of EMP-scFv on platelet activation were addressed by incubating human diluted PRP with 15 and 50 μg/mL of EMP-scFv at 22° C. for 15 minutes, followed by the addition of either PAC-1 or CD62P antibodies and in-dark incubation for 15 minutes. The reactions were fixed and levels of PAC-1 binding and P-Selectin expression analysed in FACS.

The subject of test [4] is activated human platelets. The test is described as follows: Microscopic analysis of platelet aggregates. As to conditions: 22° C. The test is classed as cell-based. The method, then: For the microscopic analysis of platelet aggregates at different temperatures, non-diluted human PRP was placed onto a glass slide and ADP was added to a final concentration of 20 μM, in the presence and absence of EMP-scFv (50 μg/mL). Abciximab was used as a positive control at a concentration of 10 μg/mL. The experiments were conducted at 22° C. and 37° C. Phase contrast microscopy images were taken using an Olympus CKX41 microscope.

Test [5] has as its system platelet aggregates. The test is described as follows: Flow chamber: binding to platelet aggregates under physiological flow. It is filed as cell-based. The settings on record: hypothermic temperatures. The method, then:
Temperature-dependent binding of EMP-scFv to platelet aggregates was analysed using a flow chamber system. Vitrotubes rectangular capillaries (0.20×2.0 mm) were washed with 70% ethanol, dried, and coated overnight with 10 μg/ml of collagen (Collagen Reagent Horm Nycomed). Liquid was entered into the capillary via capillary drag. Capillaries were blocked for 1 hour with 1% BSA and then washed with PBS. The capillary was connected on the one end to a reservoir and on the other end to a Harvard medical pump by tubing. Before connecting the capillary all tubes were flushed with PBS in order to avoid air bubbles entering the capillary. PRP was then drawn into the capillary and numerous platelet aggregates were formed within 10 minutes. The capillary was then washed with PBS via the pump. In the meantime, the EMP-scFv (50 μg/mL) was incubated with PENTA-HIS Alexa Fluor 488 (Qiagen) antibody for 10 minutes in a final volume of 1 mL, and then drawn into the capillary containing platelet aggregates at physiological flow rate of 60s^−1. The capillary was then imaged with a 20× magnification objective, after which DIC and fluorescent images were captured using Olympus IX81 microscope with XM10 camera. The experiments were conducted at 22° C. and 37° C.

Test [6] has as its system carotid artery thrombosis. The test is described as follows: Ferric chloride-induced mouse carotid artery thrombosis model. The test is classed as in vivo. As to conditions: compared to the control group. How it is done:
C57BL/6 mice weighing from 20-25 g were used. Care and use of laboratory animals followed the national guidelines and were approved by the institutional animal care and ethics committees. Mice were anesthetized with isoflurane, following an intra-peritoneal injection with ketamine (100 mg/kg BW) and xylazine (20 mg/kg BW). The body core temperature was monitored with a digital thermometer, and controlled at either 28° C. or 37° C. with a thermal pad (Temperature Controller TR-200, Fine Science Tools Inc.). Reducing the body temperature to 28° C. was achieved by a gradual drop, at a rate of 0.3-0.4° C./min. The mice on the thermal pad were placed under a dissecting microscope (SZ61, Olympus). An incision of the skin was made directly on the top of trachea, and vessels used for experiment were bluntly isolated from surrounding tissues. […] After rinsing with normal saline, a nano-Doppler flow probe (0.5 VB, Transonic) was then positioned over the vessel and the blood flow rate (ml/min) was measured by a transit-time perivascular flow-meter (TS420, Transonic Systems Inc.). […] Jugular vein blood flow was recorded 15 minutes after induction of injury in mice pre-treated with EMP-scFv, eptifibatide or saline. The blood flow recorded at 1 minute was considered as the initial blood flow rate. […]

B1: EMP-scFv: fusion of elastin mimetic polypeptide (EMP) and activation-specific GPIIb/IIIa-blocking single-chain antibody; 704 amino acids, approximately 70 kDa (protein)
chain: MAVPAVGIPAVGIPAVGIPAVGIPAVGIPAVGIPAVGIPAVGIPAVGIPAVGIPAVGIPAVGIPAVGIPAVGIPAVGIPAVGIPAVGIPAVGIPAVGIPAVGIPAVGIPAVGIPAVGIPAVGIPAVGIPAVGIPAVGIPAVGIPAVGIPAVGIPAVGIPAVGIPAVGIPAVGIPAVGIPAVGIPAVGIPAVGIPAVGIPAVGIPAVGIPAVGIPAVGIPAVGIPAVGIPAVGIPAVGIPAVGIPAVGIPAVGIPAVGIPAVGIPAVGIPAVGIPAVGIPAVGIPAVGIPAVGIPAVGIPAVGIPAVGIPAVGIPAVGIPAVGIPAVGIPAVGIPAVGIPAVGIPAVGIPAVGIPAVGIPAVGIPAVGIPAVGIPAVGIPAVGIPAVGIPAVGIPAVGIPAVGIPGGGGSMMAEVQLVESGGGLVQPGGSLRLSCAASGFMFSRYAMSWVRQAPGKGPEWVSGISGSGGSTYYADSVKGRFTVSRDNSKNTLYLQMNSLRAEDTAVYYCARIFTHRSRGDVPDQTSFDYWGQGTLVTVSSGSASAPKLEEGEFSEARVSSELTQDPAVSVALGQTVRITCQGDSLRNFYASWYQQKPGQAPTLVIYGLSKRPSGIPDRFSASSSGNTASLTITGAQAEDEADYYCLLYYGGGQQGVFGGGTKLTVLRQPKAAPSVTLFPPSSAAAGSEQKLISEEDLNSHHHHHH
In the case of B1, the “binding to human activated platelets” value was “significantly higher level” in test [1] (22° C.) and “totally abolished” in test [1] (37° C.). In addition, in test [1] (bound to activated platelets at 22° C., then temperature increased to 37° C.), the “dissociation from GPIIb/IIIa upon re-warming” value is listed as “did not dissociate”. Moreover, the “binding to resting platelets” value in test [1] (human, regardless of the temperature) is “No binding”. Further, the “fibrinogen binding to human activated platelets” value in test [2] (22° C., concentration-dependent) is “significantly reduced”; in test [2] (32° C.) it was “inhibit the binding of fibrinogen”; in test [2] (37° C.) it was “not inhibited”. The “platelet activation: P-selectin expression” value in test [3] is “no effect”. Further, the “platelet activation: binding of PAC-1” value in test [3] was “no effect”. For the same molecule, the “aggregation of activated human platelets (microscopy)” value in test [4] was “inhibited aggregation”. The “binding to platelet aggregates under flow” value in test [5] is “induced binding”. In addition, the values for the occlusion time result in test [6] (28° C.) and in test [6] (37° C.) were “significantly prolonged” and “remained unchanged”, respectively.
